# System: Escherichia coli TOP10
# Assay: shrunken log2 fold change of peptide-encoding DNA abundance (4.5 h post-induction vs induction); higher = less antimicrobial activity (less host growth inhibition)
# Conditions: time post-induction: 4.5 h; library: site-saturation at positions 5, 18, 19, 20
# 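Note: peptides expressed intracellularly from a pBAD plasmid library in pooled LB shake-flask culture, induced with 0.3% L-arabinose, DNA abundance read by NGS, three biological replicates, DESeq2 with apeglm shrinkage.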
row,Sequence,shrunken log2 fold change
1,RRIRWRPPRLPRPRPRPHPDPRP,0.0175
2,RRIRERPPRLPRPRPRPAICPRP,-0.141
3,RRIRWRPPRLPRPRPRPWPTPRP,0.336
4,RRIRSRPPRLPRPRPRPDVHPRP,-0.0954
5,RRIRDRPPRLPRPRPRPGWSPRP,0.104
6,RRIRHRPPRLPRPRPRPMDQPRP,-0.0412
7,RRIRNRPPRLPRPRPRPSAAPRP,0.338
8,RRIRDRPPRLPRPRPRPMWRPRP,0.309
9,RRIRERPPRLPRPRPRPWEPPRP,0.073
10,RRIRWRPPRLPRPRPRPRCNPRP,0.0644
11,RRIRGRPPRLPRPRPRPLTDPRP,0.284
12,RRIRFRPPRLPRPRPRPPPLPRP,1.38
13,RRIRTRPPRLPRPRPRPQFDPRP,-0.652
14,RRIRDRPPRLPRPRPRPAQIPRP,0.263
15,RRIRIRPPRLPRPRPRPWAWPRP,-0.00783
16,RRIRCRPPRLPRPRPRPNPRPRP,0.378
17,RRIRVRPPRLPRPRPRPNFNPRP,-0.143
18,RRIRGRPPRLPRPRPRPEGQPRP,1.13
19,RRIRGRPPRLPRPRPRPLGNPRP,0.17
20,RRIRNRPPRLPRPRPRPKDNPRP,-0.484
21,RRIRVRPPRLPRPRPRPQLLPRP,-0.0606
22,RRIRFRPPRLPRPRPRPKPRPRP,0.886
23,RRIRCRPPRLPRPRPRPHPQPRP,0.266
24,RRIRYRPPRLPRPRPRPMVKPRP,-0.574
25,RRIRIRPPRLPRPRPRPWWSPRP,-0.0718

row,Sequence,shrunken log2 fold change
1,RRIRERPPRLPRPRPRPKNYPRP,-0.463
2,RRIRSRPPRLPRPRPRPANQPRP,-0.116
3,RRIRLRPPRLPRPRPRPVLDPRP,-0.366
4,RRIRQRPPRLPRPRPRPRENPRP,0.0469
5,RRIRRRPPRLPRPRPRPYQCPRP,0.0675
6,RRIRCRPPRLPRPRPRPIRAPRP,-0.0291
7,RRIRNRPPRLPRPRPRPHDAPRP,-0.116
8,RRIRQRPPRLPRPRPRPSNLPRP,-0.11
9,RRIRHRPPRLPRPRPRPQNPPRP,-0.0256
10,RRIRQRPPRLPRPRPRPFGVPRP,0.0831
11,RRIRERPPRLPRPRPRPVEIPRP,-0.0716
12,RRIRARPPRLPRPRPRPNNCPRP,-0.466
13,RRIRNRPPRLPRPRPRPHWYPRP,-0.0582
14,RRIRKRPPRLPRPRPRPKQWPRP,0.216
15,RRIRARPPRLPRPRPRPQIRPRP,0.0717
16,RRIRKRPPRLPRPRPRPVYVPRP,-0.0394
17,RRIRVRPPRLPRPRPRPITFPRP,-0.0498
18,RRIRGRPPRLPRPRPRPLCSPRP,0.496
19,RRIRKRPPRLPRPRPRPYIEPRP,-0.127
20,RRIRRRPPRLPRPRPRPPRGPRP,0.911
21,RRIRPRPPRLPRPRPRPCLDPRP,-0.251
22,RRIRVRPPRLPRPRPRPTEGPRP,0.0116
23,RRIRTRPPRLPRPRPRPYNMPRP,-0.568
24,RRIRLRPPRLPRPRPRPFQEPRP,-0.274
25,RRIRKRPPRLPRPRPRPKHEPRP,0.134

row,Sequence,shrunken log2 fold change
1,RRIRSRPPRLPRPRPRPVRSPRP,0.255
2,RRIRHRPPRLPRPRPRPKRHPRP,0.0834
3,RRIRIRPPRLPRPRPRPFMHPRP,-0.0575
4,RRIRIRPPRLPRPRPRPMPLPRP,0.124
5,RRIRQRPPRLPRPRPRPIKKPRP,-0.1
6,RRIRKRPPRLPRPRPRPHSRPRP,0.147
7,RRIRMRPPRLPRPRPRPDPHPRP,0.0256
8,RRIRLRPPRLPRPRPRPCRRPRP,-0.0846
9,RRIRERPPRLPRPRPRPQVDPRP,-0.211
10,RRIRRRPPRLPRPRPRPEHQPRP,0.25
11,RRIRSRPPRLPRPRPRPMTHPRP,-0.469
12,RRIRQRPPRLPRPRPRPCRNPRP,-0.0117
13,RRIRERPPRLPRPRPRPSSNPRP,-0.0512
14,RRIRTRPPRLPRPRPRPNSWPRP,-0.413
15,RRIRCRPPRLPRPRPRPSMSPRP,-0.273
16,RRIRPRPPRLPRPRPRPHRQPRP,-0.149
17,RRIRDRPPRLPRPRPRPDEKPRP,0.0291
18,RRIRYRPPRLPRPRPRPEASPRP,-0.0105
19,RRIRPRPPRLPRPRPRPYWTPRP,-0.68
20,RRIRNRPPRLPRPRPRPVHMPRP,-0.0948
21,RRIRERPPRLPRPRPRPLHEPRP,-0.65
22,RRIRNRPPRLPRPRPRPWDVPRP,-0.0115
23,RRIRNRPPRLPRPRPRPSYVPRP,-0.0484
24,RRIRSRPPRLPRPRPRPWSDPRP,-0.164
25,RRIRERPPRLPRPRPRPKMEPRP,-0.0415

# From the supplement of paper PMC9112550, “Optimization of the antimicrobial peptide Bac7 by deep mutational scanning” (BMC Biology, 2022)
